Assay results taken from patent publication US10736941B2, “Cell membrane-permeating peptide” (NATIONAL UNIVERSITY CORPORATION KUMAMOTO UNIVERSITY, priority 2015, dated 2020).
Where no end group is shown, it is not given here.

Assays:
[1] = tested on: Caco-2 cells; experiment: Cell toxicity to Caco-2 cells (Cell Counting kit 8); format: cell-based, human; details: Caco-2 cells treated for 24 hours, 10 μM
Procedure: For cell toxicity, 100 μL of 0-10 μM DNP peptide was added to Caco-2 cells cultured in a 96-well plate, and the cell survival rates after 1, 6 and 24 hours were measured using Cell Counting kit 8 (DOJINDO Laboratories).
(§1) Caco-2 cells were treated for 24 hours using the cyclic peptide DNP having highest permeability at a concentration of 10 μM, but weakening of cell toxicity and tight junction was not observed.

[2] = tested on: Caco-2 cells; experiment: Influence on tight junction of Caco-2 cells (TEER, Millicell ERS-2); format: cell-based, human; details: Caco-2 cells treated for 24 hours, 10 μM
Procedure: For the influence on tight junction, Caco-2 cells were cultured in Transwell, then, 2 mL of 0-10 μM peptide DNP was added at the apical (AP) side, and 1, 2, 3, 6, 12 and 24 hours after addition, the electric resistance value (TEER) was measured using Millicell ERS-2.
as §1

[3] = tested on: Caco-2 cells; experiment: Competitive inhibition of DNP-presenting phage permeation through Caco-2 cells by synthetic unlabeled DNP peptide; format: cell-based, human; details: unlabeled DNP 10 μM
Procedure: The experiment of permeation using Caco-2 cells was conducted according to a report of Ohura et al. (J. Pharm. Sci. Vol 100, No. 9, 2011). Each phage stock was prepared by diluting with an HBSS buffer so as to give a concentration of 5×10^11 pfu/mL. Caco-2 cells placed in Transwell (manufactured by Coring) were cultured, and formation of sufficient tight junction was confirmed, then, Transwell was transferred to a new 6-well plate. To the apical (AP) side of the cell, 2 mL of the phage preparation liquid was added and incubated at 37° C. (this time point t=0 min). When reached each time point, Transwell was transferred to a new 6-well plate. The time point was 1, 3, 5, 10 and 30 min. The sample at the basal (BA) side at each time point was kept on ice. When reached 30 min, Transwell was transferred to a new 6-well plate, and the HBSS buffer at the AP side was aspirated, then, the cells were recovered into a centrifugal tube. The titre at the BA side and the titre in the supernatant at each time point were measured by qPCR. […]
The DNP-presenting phage permeating Caco-2 cells was measured in the presence or in the absence of the unlabeled DNP, in the same manner as in Example 1. […]

[4] = tested on: mouse small intestine closed loop; experiment: Promotion of insulin absorption by co-administration of cyclic peptide, mouse small intestine closed loop, blood glucose level; format: in vivo; details: DNPGNET 5 mM co-administered with insulin 10 IU/kg into mouse small intestine loop, versus insulin alone, over 60 minutes
Procedure: The influence on insulin absorption by co-administration of the cyclic peptide of the present invention was studied by measuring the blood glucose level.
We asked GenScript Japan Inc. to synthesize a cyclic peptide shown in FIG. 4B containing a sequence of DNPGNET (SEQ TD No: 5).
A peptide was prepared by using 100 μL of a hot HBSS solution so that the concentration of insulin was 10 IU/kg and the concentration of DNPGNET was 5 mM and incubated at 37° C. for 1 hour, and the resultant was used in the co-administration group. For the insulin single administration group, a sample was prepared by using 100 μL of a hot HBSS solution so that the concentration of insulin was 10 IU/kg and incubated at 37° C. for 1 hour, and the resultant peptide was used. In the same manner as in Example 6, a mouse small intestine closed loop was produced, then, the DNPGNET+insulin solution or the insulin solution prepared previously was administered into the loop. The time of administration was 0 min, and the blood glucose level was measured over a time of 60 minutes by using ACCU-CHEK (registered trademark) Aviva Nano.

For “DNPGNET (also: cyclic peptide, mode of cyclisation not given here)”, the cell toxicity [1] was “not observed”, the “weakening of tight junction (TEER)” value [2] was “not observed” and the “competitive inhibition of DNP-presenting phage permeating Caco-2 cells” value [3] was “competitive inhibition occurs”. For the same substance, the “insulin absorption (blood glucose level)” value [4] was “absorption of insulin was promoted”.
